Data as given in patent US8629107B2, “Genes and proteins associated with angiogenesis and uses thereof” (National Jewish Health, priority 2005, dated 2014).
“Also recorded” adds a separate entry of the source.

Columns and labels:
MB114 cells = test: angiogenic sprouting in rat tail collagen matrices; assay type: cell-based, murine
Description: (§1) The effect putative angiogenic agents had on MB114 cell activities were determined as follows: (i) cell proliferation using a [^3H]thymidine incorporation assay as described (Albig et al, 2006; Albig and Schiemann, 2004; Albig and Schiemann, 2005); (ii) cell invasion through Matrigel matrices using a modified Boyden-chamber assay as described (Albig et al, 2006; Albig and Schiemann, 2004; Albig and Schiemann, 2005); (iii) p38 MAPK phosphorylation using immunoblot analyses as described (Albig et al, 2006; Albig and Schiemann, 2004; Albig and Schiemann, 2005); (iv) angiogenic sprouting in rat tail collagen matrices as described (Albig et al, 2006; Albig and Schiemann, 2004); and (v) Hes1- and SBE-driven luciferase reporter gene assays as described (Albig et al, 2006; Albig and Schiemann, 2004; Albig and Schiemann, 2005).
Finally, it was determined whether expression of these putative angiogenic factors could effect the angiogenic sprouting of quiescent MB114 cells monolayers. MB114 cells expressing either GFP or various putative angiogenic agents were grown to confluency, and subsequently were overlaid with rat tail collagen matrices. Angiogenic sprouting by quiescent EC monolayers was stimulated by inclusion of 10% FBS and allowed to proceed for 5 days. The quantity of invading angiogenic sprouts was determined by manual counting under a light microscope.
Based on the findings described in the Examples above, the inventors hypothesized that MAGP-2 promotes angiogenesis by antagonizing Notch1 signaling. To test this hypothesis, it was first determined whether inhibiting Notch signaling in MB114 cells would enhance their angiogenic sprouting. In doing so, MB114 cells were transiently transfected with the Hes1-luciferase reporter gene (and pCMV-β-gal cDNA as control), and subsequently were treated overnight with or without the highly specific gamma-secretase inhibitor, DAPT (Sastre et al, 2001), which inhibits S3-mediated cleavage of Notch1 and, consequently, NICD-mediated induction of Hes1 expression. Afterward, luciferase and β-gal activities were determined. […] In this experiment, quiescent MB114 cell monolayers were overlaid with rat tail collagen matrices, and were induced to form angiogenic sprouts by addition of 10% FBS supplemented with or without DAPT (10 μM). Five days later the number of invading angiogenic spouts were quantified by manual counting on a light microscope. Based on these findings, the inventors conclude that Notch activation functions in mediating angiostasis in MB114 cells. […] Collectively, these findings indicate that Notch1 signaling antagonizes angiogenic sprouting in MB114 cells, and that downregulation of Notch1 signaling components is necessary for angiogenesis activation in MB114 cells.
Having shown that Notch1 signaling mediates angiostasis in MB114 cells, the inventors next asked whether MAGP-2 promotes angiogenesis in MB114 cells via its ability to antagonize Notch signaling. To do so, MAGP-2-expressing MB114 cells were engineered to constitutively express active Notch1 NICD fragment in an attempt to overcome the block of Notch processing mediated by MAGP-2. More particularly, GFP-, MAGP-2-, and MAGP-2/N1ICD-expressing MB114 cells were transiently transfected with pHes1-luciferase and pCMV-β-gal cDNAs. Luciferase and β-gal activities were determined 48 h post-transfection. As the inventors observed previously, MAGP-2 expression reduced Hes1-luciferase activity in MB114 cells (FIG. 5C), a reaction that was bypassed by co-expression of NICD in these cells (FIG. 5C). […] In this experiment, quiescent monolayers of GFP-, MAGP-2-, and MAGP-2/N1ICD-expressing MB114 cells were overlaid with rat tail collagen matrices and incubated in the absence or presence of 10% FBS for 5 days. Afterward, the number of invading angiogenic sprouts were determined by manual counting under a light microscope.

[1] = test system: Hes1 promoter (Notch1 signaling); test: Hes1-driven luciferase reporter gene assay in MB114 cells; assay type: cell-based, murine
Description: as §1
MAGP-2 can interact physically with Notch1 and its ligand, Jagged-1 (Miyamoto et al, 2006; Nehring et al, 2005), resulting in the ectodomain shedding of both molecules from the cell surface. Notch signaling also plays an essential role in regulating normal vessel development and angiogenesis in mammals (Leong and Karsan, 2005; Shawber and Kitajewski, 2004). Given these two facts, the inventors hypothesized that MAGP-2 promotes angiogenesis by modulating Notch1 signaling. To test this hypothesis, first measured were changes in luciferase expression driven by a Hes1-luciferase reporter gene whose expression is induced by Notch1 activation (Iso et al, 2003). MB114 and HUVEC cells were transiently transfected either with pHes1-luciferase, pCMV-β-gal, and MAGP-2 cDNAs, or with pHes1-luciferase and pCMV-β-gal cDNAs and subsequently stimulated with rMAGP-2 (1 or 5 mg/ml). Afterward, luciferase and β-gal activities contained in detergent-solubilized cell extracts were measured. In addition, GFP- and MAGP-2-expressing MB114 cells were transiently transfected with pHes1-luciferase and pCMV-β-gal cDNAs, together with or without Jagged-1 cDNA as indicated. Afterward, luciferase and β-gal activities were measured as above.
To further investigate the impact of MAGP-2 on Notch1 processing and NICD accumulation, the inventors took advantage of recent findings showing that the ability of TGF-β to induce Hes1 promoter activity requires Smad3 to interact physically with NICD (Blokzijl et al, 2003), a reaction that is dispensable for canonical Smad3-mediated signaling stimulated by TGF-β (Blokzijl et al, 2003). It was therefore reasoned that the ability of MAGP-2 to inhibit NICD production in ECs would reduce the capacity of TGF-β to induce luciferase expression driven by the Hes1 promoter, but not that driven by the synthetic Smad2/3-binding element (SBE). GFP- and MAGP-2-expressing MB114 cells were transiently transfected with either pHes1- or pSBE-luciferase, both together with pCMV-β-gal as indicated in FIG. 4B. Afterward, the resulting transfectants were stimulated overnight with increasing concentrations of TGF-β1 (0-5 ng/ml).
Based on the findings described in the Examples above, the inventors hypothesized that MAGP-2 promotes angiogenesis by antagonizing Notch1 signaling. To test this hypothesis, it was first determined whether inhibiting Notch signaling in MB114 cells would enhance their angiogenic sprouting. […] Afterward, luciferase and β-gal activities were determined. […]

[2] = test system: Hes1 promoter (Notch1 signaling); test: Hes1-driven luciferase reporter gene assay in HUVEC cells; assay type: cell-based, human; parameters: dose or concentration left out as unconfirmed
Description: as §1
MAGP-2 can interact physically with Notch1 and its ligand, Jagged-1 (Miyamoto et al, 2006; Nehring et al, 2005), resulting in the ectodomain shedding of both molecules from the cell surface. […] To test this hypothesis, first measured were changes in luciferase expression driven by a Hes1-luciferase reporter gene whose expression is induced by Notch1 activation (Iso et al, 2003). […] Afterward, luciferase and β-gal activities contained in detergent-solubilized cell extracts were measured. […] Afterward, luciferase and β-gal activities were measured as above. […]

B1: MAGP-2: secreted glycoprotein (25 kDa); stably expressed in MB114 cells by bicistronic retroviral transduction, Myc-His tagged (protein)
chain: QRGDDVPETFTDDPNLVNDPSTDDTALADITPSTDDLAGDKNATAECRDEKFACTRLYSVHRPVRQCVHQSCFTSLRRMYIINNEICSRLVCKEHEAMKDELCRQMAGLPPRRLRRSNYFRLPPCENMNLQRPDGL
modifications: left off: small tags and cut ends
notes: secreted glycoprotein (25 kDa); stably expressed in MB114 cells by bicistronic retroviral transduction, Myc-His tagged
angiogenic sprouting of quiescent MB114 cell monolayers (MB114 cells; MB114 cells stably expressing the transgene vs GFP, 10% FBS, 5 days): significantly increased | ability of Jagged-1 to induce Hes1-luciferase activity ([1]; MAGP-2-expressing vs GFP-expressing MB114 cells, with Jagged-1 cDNA): abrogated | ability of TGF-β to stimulate Hes1-luciferase activity ([1]; MAGP-2-expressing vs GFP-expressing MB114 cells, TGF-β1 0-5 ng/ml overnight): significantly decreased | Hes1-driven luciferase activity ([1]; MAGP-2 expression in MB114 cells): repressed; also recorded: reduced | Hes1-driven luciferase activity ([2]; MAGP-2 expression in HUVEC cells): repressed

B2: rMAGP-2: recombinant FLAG-tagged MAGP-2 purified from bacterial cell extracts by anti-FLAG chromatography (protein, UniProt Q9QZJ6 29-164, looked up)
Microfibrillar-associated …: QRGDDVPETFTDDPNLVNDPSTDDTALADITPSTDDLAGDKNATAECRDEKFACTRLYSVHRPVRQCVHQSCFTSLRRMYIINNEICSRLVCKEHEAMKDELCRQMAGLPPRRLRRSNYFRLPPCENMNLQRPDGL
modifications: FLAG tag
notes: recombinant FLAG-tagged MAGP-2 purified from bacterial cell extracts by anti-FLAG chromatography
angiogenic sprouting of quiescent MB114 cell monolayers (MB114 cells; purified recombinant protein added, 1 μg/ml): stimulated | Hes1-driven luciferase activity ([1]; MB114 cells stimulated with recombinant protein, 1 or 5 mg/ml): repressed | Hes1-driven luciferase activity ([2]; HUVEC cells stimulated with recombinant protein): repressed
